How the values were obtained:
[1] = system: full-length free histone H3 (individual core histone)
[2] = system: peptide containing H3 residues 1-20
[3] = system: H3 peptide previously di-methylated at K27
[4] = system: GST-fusion histone H3 peptide (residues 1-57), K27R mutant [GST: P08515]
[5] = system: GST-fusion histone H3 peptide (residues 1-57), wild-type
[6] = system: H3 peptide phosphorylated at S28
[7] = system: H3 peptide containing residues 15-30

## SET protein from chlorella virus NY-2B
[1]
  histone methyltransferase activity: the SET proteins from these 3 viruses selectively methylate H3 (data not shown)
Core histone H2A
  histone methyltransferase activity: the SET proteins from these 3 viruses selectively methylate H3 (data not shown)
[2]
  methylation activity with H3 peptides (14C-methyl-SAM): these viral SET proteins only methylated a H3 peptide containing residues 15-30 but not a peptide containing H3 residues 1-20
Core histone H2B
  histone methyltransferase activity: the SET proteins from these 3 viruses selectively methylate H3 (data not shown)
[3]
  methylation activity with H3 peptides (14C-methyl-SAM): They showed little methyltransferase activity if the H3 peptide was previously di-methylated at K27 or phosphorylated at S28
[4]
  HMT activity on GST-histone H3 (residues 1-57): these viral SET proteins had robust methylation activity on wild-type H3 but little or diminished activity on the K27R mutant
[5]
  HMT activity on GST-histone H3 (residues 1-57): these viral SET proteins had robust methylation activity on wild-type H3 but little or diminished activity on the K27R mutant
Core histone H4
  histone methyltransferase activity: the SET proteins from these 3 viruses selectively methylate H3 (data not shown)
[6]
  methylation activity with H3 peptides (14C-methyl-SAM): They showed little methyltransferase activity if the H3 peptide was previously di-methylated at K27 or phosphorylated at S28
[7]
  methylation activity with H3 peptides (14C-methyl-SAM): these viral SET proteins only methylated a H3 peptide containing residues 15-30 but not a peptide containing H3 residues 1-20

## SET protein from chlorella virus MA-1D
[1]
  histone methyltransferase activity: the SET proteins from these 3 viruses selectively methylate H3 (data not shown)
Core histone H2A
  histone methyltransferase activity: the SET proteins from these 3 viruses selectively methylate H3 (data not shown)
[2]
  methylation activity with H3 peptides (14C-methyl-SAM): these viral SET proteins only methylated a H3 peptide containing residues 15-30 but not a peptide containing H3 residues 1-20
Core histone H2B
  histone methyltransferase activity: the SET proteins from these 3 viruses selectively methylate H3 (data not shown)
[3]
  methylation activity with H3 peptides (14C-methyl-SAM): They showed little methyltransferase activity if the H3 peptide was previously di-methylated at K27 or phosphorylated at S28
[4]
  HMT activity on GST-histone H3 (residues 1-57): these viral SET proteins had robust methylation activity on wild-type H3 but little or diminished activity on the K27R mutant
[5]
  HMT activity on GST-histone H3 (residues 1-57): these viral SET proteins had robust methylation activity on wild-type H3 but little or diminished activity on the K27R mutant
Core histone H4
  histone methyltransferase activity: the SET proteins from these 3 viruses selectively methylate H3 (data not shown)
[6]
  methylation activity with H3 peptides (14C-methyl-SAM): They showed little methyltransferase activity if the H3 peptide was previously di-methylated at K27 or phosphorylated at S28
[7]
  methylation activity with H3 peptides (14C-methyl-SAM): these viral SET proteins only methylated a H3 peptide containing residues 15-30 but not a peptide containing H3 residues 1-20

## SET protein from chlorella virus NY-2A
[1]
  histone methyltransferase activity: the SET proteins from these 3 viruses selectively methylate H3 (data not shown)
Core histone H2A
  histone methyltransferase activity: the SET proteins from these 3 viruses selectively methylate H3 (data not shown)
[2]
  methylation activity with H3 peptides (14C-methyl-SAM): these viral SET proteins only methylated a H3 peptide containing residues 15-30 but not a peptide containing H3 residues 1-20
Core histone H2B
  histone methyltransferase activity: the SET proteins from these 3 viruses selectively methylate H3 (data not shown)
[3]
  methylation activity with H3 peptides (14C-methyl-SAM): They showed little methyltransferase activity if the H3 peptide was previously di-methylated at K27 or phosphorylated at S28
[4]
  HMT activity on GST-histone H3 (residues 1-57): these viral SET proteins had robust methylation activity on wild-type H3 but little or diminished activity on the K27R mutant
[5]
  HMT activity on GST-histone H3 (residues 1-57): these viral SET proteins had robust methylation activity on wild-type H3 but little or diminished activity on the K27R mutant
Core histone H4
  histone methyltransferase activity: the SET proteins from these 3 viruses selectively methylate H3 (data not shown)
[6]
  methylation activity with H3 peptides (14C-methyl-SAM): They showed little methyltransferase activity if the H3 peptide was previously di-methylated at K27 or phosphorylated at S28
[7]
  methylation activity with H3 peptides (14C-methyl-SAM): these viral SET proteins only methylated a H3 peptide containing residues 15-30 but not a peptide containing H3 residues 1-20
